According to PMC4979867, “Reconstitution of the membrane protein OmpF into biomimetic block copolymer–phospholipid hybrid membranes” (Beilstein Journal of Nanotechnology, 2016):

Molecular target: the molecule itself
Assay: SDS-PAGE of the unboiled sample; purified OmpF in 1% octyl-POE, sample not boiled before SDS-PAGE

B1: outer membrane protein OmpF from Escherichia coli (natural protein, UniProt P02931 23-362, looked up)
chain: AEIYNKDGNKVDLYGKAVGLHYFSKGNGENSYGGNGDMTYARLGFKGETQINSDLTGYGQWEYNFQGNNSEGADAQTGNKTRLAFAGLKYADVGSFDYGRNYGVVYDALGYTDMLPEFGGDTAYSDDFFVGRVGGVATYRNSNFFGLVDGLNFAVQYLGKNERDTARRSNGDGVGGSISYEYEGFGIVGAYGAADRTNLQEAQPLGNGKKAEQWATGLKYDANNIYLAANYGETRNATPITNKFTNTSGFANKTQDVLLVAQYQFDFGLRPSIAYTKSKAKDVEGIGDVDLVNYFEVGATYYFNKNMSTYVDYIINQIDSDNKLGVGSDDTVAVGIVYQF
notes: Outer membrane porin OmpF, Escherichia coli, native protein from strain B^E BL21(DE3)omp6 (lacks LamB and OmpC); no residues or identifiers printed; The protein here comes from an E. coli B strain, whose OmpF may differ from it at a few positions; also called native OmpF protein
- stoichiometry N: 3
